In patent CN115386006A (SHANGHAI XIANGYAO BIOLOGICAL TECH CO LTD, dated 2022):
Where a chain is given by its changes, count along the chain named.

B1: HTS0371 scFv (scFv, V domains shown)
VH: EVQLQQSGPELVKPGASVKMSCKASGYTFTSYVMHWVKQKPGQGLEWIGYINPYNDGTKYNEKFKGKATLTSDKSSSTAYMELSSLTSEDSAVYYCARGGKLNWYFDVWGAGTTVTVSS
VL: NIVMTQSPASLAVSLGQRATISCRASESVDSYGNSFMHWYQQKPGQPPKLLIYLASNLESGVPARFSGSGSRTDFTLTIDPVEADDAATYYCQQNNEDPYTFGGGTKLEIN
notes: Tested as one scFv chain in E. coli supernatant, found with an anti-6xHis antibody
B2: HTS0370 scFv (scFv, V domains shown)
VH: EVQLQQSGAELMKPGASVKISCKATGYTFSSYWMEWVKQRPGLGLEWIGQILPGSSYTNYNDKFKGKATFTADTSSNTAYMQLSSLTSEDSAVYYCAKKGGPIYYGNRPFYYAMDYWGQGTSVTVSS
VL: NIMMTQTPKFLLVSAGDRVTITCKASQSVSNDVAWYQQKPGQSPKLQIYYASNRYTGVPDRFTGSGYGTDFTFTISTVQAEDLAVYFCQQDYSSPLTFGAGTKLEIK
notes: as for B1
B3: HTS0372 scFv (scFv, V domains shown)
VH: EVQLQQSGPELVKPGASMKISCKASGYSFTGYTMNWVKQSHGKNLEWIGLINPYNGRTIYNQKFKGKATLTVDKSSSTAYMELLSLTSEDSAVYYCARVALRYAMDYWGQGTSLTVSS
VL: DIVMTQSQKFMSTSVGDRVSVTCKASQNVGTNVAWYQQKPGQSPKALIYSASYRYSGVPDRFTGSGSGTDFTLTISNVQSEDLAEYFCQQYNSYPLTFGAGTKLEIN
notes: as for B1
B4: HTS0375 scFv (scFv, V domains shown)
VH: B3 VH
VL: B3 VL with D1S, R18K, N28S, G30Y, A46S, S56N, L96V, N107K
notes: as for B1
B5: HTS0373 scFv (scFv, V domains shown)
VH: EVQLQQSGPELVKPGASMKISCKASGYSFAGYTVNWVKQSHGKNLEWIGLINPYNGGTTYTPKFKDKATLTVDKSSSTAYMELLSLTSEDSAVYYCTRGGFYRYDFDFWGQGTSVTVSS
VL: DILMTQSPSSLSASLGERVSLTCRASQEISGYLSWLQQKPDGTIKRLIYAASTLDSGVPKRFSGSRSGSDYSLTISSLESEDFADYYCLQYASYPFTFGSGTKLEMK
notes: as for B1
B6: HTS0374 scFv (scFv, V domains shown)
VH: B5 VH with E1Q, A16T, A30T, V115L
VL: EIQMTQSPSSLSASLGERVSLTCRASQDIGSSLNWLQQEPDGTIKRLIYATSSLDSGVPKRFSGSRSGSDYSLTISSLESEDFVDYYCLQYASSPYTFGGGTKLEMK
notes: as for B1

The binders below were run against T1, 人GPRC5D (human G protein-coupled receptor family C group 5 member D) (human, UniProt Q9NZD1 1-345) (assay: flow cytometry, scFv supernatant on HEK293-GPRC5D-ZSGreen1 and H929 cells, APC anti-6xHis).
T1 construct: also called huGPRC5D; hGPRC5D
T1 sequence (Q9NZD1 whole entry): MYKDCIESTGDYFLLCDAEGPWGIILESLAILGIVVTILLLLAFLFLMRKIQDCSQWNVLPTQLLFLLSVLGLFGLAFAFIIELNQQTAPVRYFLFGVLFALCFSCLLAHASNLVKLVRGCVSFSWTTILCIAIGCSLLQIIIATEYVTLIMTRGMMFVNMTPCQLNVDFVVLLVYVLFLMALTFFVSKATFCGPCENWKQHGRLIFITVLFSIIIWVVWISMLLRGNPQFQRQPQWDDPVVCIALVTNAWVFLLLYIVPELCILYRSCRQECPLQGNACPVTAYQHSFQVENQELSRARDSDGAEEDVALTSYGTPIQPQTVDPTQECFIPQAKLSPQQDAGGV

| binding result | Binder |
| --- | --- |
| binds | B1 |
| binds | B2 |
| binds | B3 |
| binds | B4 |
| binds | B5 |
| binds | B6 |
